Target: T1, human Regnase-1 of Example 15 (full length, GST tag cleaved off, BirA recognition sequence on the C-terminal side, biotinylated)
T1 sequence (Q5D1E8 1-599, looked up): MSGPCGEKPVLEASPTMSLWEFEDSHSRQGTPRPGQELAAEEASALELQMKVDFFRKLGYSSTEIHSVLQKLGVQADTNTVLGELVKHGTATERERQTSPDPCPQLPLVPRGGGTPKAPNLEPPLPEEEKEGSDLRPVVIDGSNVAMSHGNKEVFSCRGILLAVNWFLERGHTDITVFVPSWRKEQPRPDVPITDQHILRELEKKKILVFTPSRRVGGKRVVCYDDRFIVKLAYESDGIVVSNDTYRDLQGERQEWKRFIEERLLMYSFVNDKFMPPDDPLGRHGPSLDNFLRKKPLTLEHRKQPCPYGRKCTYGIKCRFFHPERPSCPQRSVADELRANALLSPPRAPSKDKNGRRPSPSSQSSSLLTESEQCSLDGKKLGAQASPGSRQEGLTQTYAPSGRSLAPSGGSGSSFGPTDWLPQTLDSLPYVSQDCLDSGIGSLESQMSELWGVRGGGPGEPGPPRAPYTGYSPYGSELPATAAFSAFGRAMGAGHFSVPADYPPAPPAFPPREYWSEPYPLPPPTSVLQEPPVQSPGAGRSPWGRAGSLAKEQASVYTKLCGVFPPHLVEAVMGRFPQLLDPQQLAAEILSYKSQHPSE

B1: IKKβ (manufactured by SignalChem) (protein)
chain: MSWSPSLTTQTCGAWEMKERLGTGGFGNVIRWHNQETGEQIAIKQCRQELSPRNRERWCLEIQIMRRLTHPNVVAARDVPEGMQNLAPNDLPLLAMEYCQGGDLRKYLNQFENCCGLREGAILTLLSDIASALRYLHENRIIHRDLKPENIVLQQGEQRLIHKIIDLGYAKELDQGSLCTSFVGTLQYLAPELLEQQKYTVTVDYWSFGTLAFECITGFRPFLPNWQPVQWHSKVRQKSEVDIVVSEDLNGTVKFSSSLPYPNNLNSVLAERLEKWLQLMLMWHPRQRGTDPTYGPNGCFKALDDILNLKLVHILNMVTGTIHTYPVTEDESLQSLKARIQQDTGIPEEDQELLQEAGLALIPDKPATQCISDGKLNEGHTLDMDLVFLFDNSKITYETQISPRPQPESVSCILQEPKRNLAFFQLRKVWGQVWHSIQTLKEDCNRLQQGQRAAMMNLLRNNSCLSKMKNSMASMSQQLKAKLDFFKTSIQIDLEKYSEQTEFGITSDKLLLAWREMEQAVELCGRENEVKLLVERMMALQTDIVDLQRSPMGRKQGGTLDDLEEQARELYRRLREKPRDQRTEGDSQEMVRLLLQAIQSFEKKVRVIYTQLSKTVVCKQKALELLPKVEEVVSLMNEDEKTVVRLQEKRQKELWNLLKIACSKVRGPVSGSPDSMNASRLSQPGQLMSQPSTASNSLPEPAKKSEELVAEAHNLCTLLENAIQDTVREQDQSFTALDWSWLQTEEEEHSCLEQAS
In the case of B1, the “phosphorylation detected by Western blotting” value is reported as “it was confirmed that human Regnase-1 is phosphorylated by IKKβ and TBK1”.

B2: TBK1 (manufactured by SignalChem) (protein)
chain: MQSTSNHLWLLSDILGQGATANVFRGRHKKTGDLFAIKVFNNISFLRPVDVQMREFEVLKKLNHKNIVKLFAIEEETTTRHKVLIMEFCPCGSLYTVLEEPSNAYGLPESEFLIVLRDVVGGMNHLRENGIVHRDIKPGNIMRVIGEDGQSVYKLTDFGAARELEDDEQFVSLYGTEEYLHPDMYERAVLRKDHQKKYGATVDLWSIGVTFYHAATGSLPFRPFEGPRRNKEVMYKIITGKPSGAISGVQKAENGPIDWSGDMPVSCSLSRGLQVLLTPVLANILEADQEKCWGFDQFFAETSDILHRMVIHVFSLQQMTAHKIYIHSYNTATIFHELVYKQTKIISSNQELIYEGRRLVLEPGRLAQHFPKTTEENPIFVVSREPLNTIGLIYEKISLPKVHPRYDLDGDASMAKAITGVVCYACRIASTLLLYQELMRKGIRWLIELIKDDYNETVHKKTEVVITLDFCIRNIEKTVKVYEKLMKINLEAAELGEISDIHTKLLRLSSSQGTIETSLQDIDSRLSPGGSLADAWAHQEGTHPKDRNVEKLQVLLNCMTEIYYQFKKDKAERRLAYNEEQIHKFDKQKLYYHATKAMTHFTDECVKKYEAFLNKSEEWIRKMLHLRKQLLSLTNQCFDIEEEVSKYQEYTNELQETLPQKMFTASSGIKHTMTPIYPSSNTLVEMTLGMKKLKEEMEGVVKELAENNHILERFGSLTMDGGLRNVDCL
B2 was tested, and the “phosphorylation detected by Western blotting” value was “it was confirmed that human Regnase-1 is phosphorylated by IKKβ and TBK1”.

From patent US20220125891
